Consider 5 molecules from PMC4814300 (Cell reports, 2016).

The target in this test is T1, Ven-SH3 (Gads, aa.256-322) (mouse, UniProt O89100 256-322).
T1 sequence (looked up): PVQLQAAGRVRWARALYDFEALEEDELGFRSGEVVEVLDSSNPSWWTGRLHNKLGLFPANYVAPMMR
The experiment in a line: FRET or BRET. (Bioluminescence resonance energy transfer reports proximity on the nanometre scale.)
By Kd is commonly meant the constant that tells how readily two partners part at equilibrium. In turn, NVPQIDRTKKPAV (peptide, UniProt P40818 403-415, looked up) [Cer-USP8, aa.403-415] displayed a Kd of 4 µM.
Next, PAPSIDRSTKPPL (peptide, UniProt Q13094 231-243, looked up) [Cer-SLP-76, aa.231-243]: 0.8 µM.
Next, PAPSIDRSTRPPL (peptide, UniProt Q13094 231-243, looked up) [Cer-SLP-76 (K240R), aa.231-243]: 24 µM; PAPSIKRSTKPPL (peptide, UniProt Q13094 231-243, looked up) [Cer-SLP-76 (D236K), aa.231-243]: 7 µM; EPPPVDRNLKPDR (peptide, UniProt Q13480 515-527, looked up) [Cer-Gab1, aa.515-527]: 1 µM.
